The values below come from publication PMC8844822, “SARM1 is a multi-functional NAD(P)ase with prominent base exchange activity, all regulated bymultiple physiologically relevant NAD metabolites” (iScience, 2022).

Substrate in data set [1]: NC(=O)c1ccc[n+]([C@@H]2O[C@H](COP(=O)([O-])OP(=O)(O)OC[C@H]3O[C@@H](n4cnc5c(N)ncnc54)[C@H](O)[C@@H]3O)[C@@H](O)[C@H]2O)c1
Briefly: purified protein, by the assay type. The conditions noted are these: other: Aplysia cyclase, substrate as labelled, pH 7.5.

Substrate in data set [2]: NC(=O)c1ccc[n+]([C@@H]2O[C@H](COP(=O)([O-])OP(=O)(O)OC[C@H]3O[C@@H](n4cnc5c(N)ncnc54)[C@H](O)[C@@H]3O)[C@@H](O)[C@H]2O)c1
The data set can be described thus: purified protein, by the assay type. In kind it is biochemical. The conditions noted are these: other: hSARM1 SAM-TIR, pH 7.5.

Substrate in data set [3]: NC(=O)c1ccc[n+]([C@@H]2O[C@H](COP(=O)([O-])OP(=O)(O)OC[C@H]3O[C@@H](n4cnc5c(N)ncnc54)[C@H](O)[C@@H]3O)[C@@H](O)[C@H]2O)c1
The data set can be described thus: NAD(P)ase activity by HPLC (kinetics, substrates, metal ions). In kind it is biochemical, human. The conditions noted are these: other: hSARM1 full length.

Where [4] appears, read: re-elaborated from Table 1, pH 7.5.

B1: Aplysia californica ADP ribosyl cyclase (Aplysia californica) (protein)
chain: IVPTRELENVFLGRCKDYEITRYLDILPRVRSDCSALWKDFFKAFSFKNPCDLDLGSYKDFFTSAQQQLPKNKVMFWSGVYDEAHDYANTGRKYITLEDTLPGYMLNSLVWCGQRANPGFNEKVCPDFKTCPVQARESFWGMASSSYAHSAEGEVTYMVDGSNPKVPAYRPDSFFGKYELPNLTNKVTRVKVIVLHRLGEKIIEKCGAGSLLDLEKLVKAKHFAFDCVENPRAVLFLLCSDNPNARECRLAKRFYRIA
For B1, in data set [1], the Km was found to be 212 ± 13.7 µM and the Vmax was found to be 51.4 ± 1.24 µmol/min/mg.

B2: hSARM1 SAM-TIR (Homo sapiens) (protein)
chain: VPSWKEAEVQTWLQQIGFSKYCESFREQQVDGDLLLRLTEEELQTDLGMKSGITRKRFFRELTELKTFANYSTCDRSNLADWLGSLDPRFRQYTYGLVSCGLDRSLLHRVSEQQLLEDCGIHLGVHRARILTAAREMLHSPLPCTGGKPSGDTPDVFISYRRNSGSQLASLLKVHLQLHGFSVFIDVEKLEAGKFEDKLIQSVMGARNFVLVLSPGALDKCMQDHDCKDWVHKEIVTALSCGKNIVPIIDGFEWPEPQVLPEDMQAVLTFNGIKWSHEYQEATIEKIIRFLQGRSSRDSSAGSDTSLEGAAPMGPT
notes: made in house
Take B2: in data set [2], the Michaelis constant (Km) worked out at 69.5 ± 2.31 µM, the maximum rate (Vmax) turned out to be 0.723 µmol/min/mg, the kcat amounted to 0.448 ± 0.009 s⁻¹ and the kcat/Km turned out to be 6500 ± 350 M⁻¹ s⁻¹.

B3: human SARM1 full length (Homo sapiens) (protein)
chain: LAVPGPDGGGGTGPWWAAGGRGPREVSPGAGTEVQDALERALPELQQALSALKQAGGARAVGAGLAEVFQLVEEAWLLPAVGREVAQGLCDAIRLDGGLDLLLRLLQAPELETRVQAARLLEQILVAENRDRVARIGLGVILNLAKEREPVELARSVAGILEHMFKHSEETCQRLVAAGGLDAVLYWCRRTDPALLRHCALALGNCALHGGQAVQRRMVEKRAAEWLFPLAFSKEDELLRLHACLAVAVLATNKEVEREVERSGTLALVEPLVASLDPGRFARCLVDASDTSQGRGPDDLQRLVPLLDSNRLEAQCIGAFYLCAEAAIKSLQGKTKVFSDIGAIQSLKRLVSYSTNGTKSALAKRALRLLGEEVPRPILPSVPSWKEAEVQTWLQQIGFSKYCESFREQQVDGDLLLRLTEEELQTDLGMKSGITRKRFFRELTELKTFANYSTCDRSNLADWLGSLDPRFRQYTYGLVSCGLDRSLLHRVSEQQLLEDCGIHLGVHRARILTAAREMLHSPLPCTGGKPSGDTPDVFISYRRNSGSQLASLLKVHLQLHGFSVFIDVEKLEAGKFEDKLIQSVMGARNFVLVLSPGALDKCMQDHDCKDWVHKEIVTALSCGKNIVPIIDGFEWPEPQVLPEDMQAVLTFNGIKWSHEYQEATIEKIIRFLQGRSSRDSSAGSDTSLEGAAPMGPT
notes: Human recombinant SARM1 full length proteins (wild-type and E642A mutant); made in house
As for B3, in data set [3] (no NMN, pH 7.5), the Km was 30.3 ± 5.18 µM and the Vmax came to 0.0224 µmol/min/mg. For the same protein, in data set [3] (setting [4]), the kcat came out at 0.03 ± 0.007 s⁻¹ and the kcat/Km worked out at 1000 ± 350 M⁻¹ s⁻¹.

In general, Km refers to the concentration of substrate that gives half-maximal velocity. As a reminder, the Vmax is the rate approached at saturating substrate. The kcat is the maximal rate divided by the concentration of active sites. As usually defined, the kcat/Km is the turnover number divided by the Michaelis constant.
